According to publication PMC8280820, “Phospho‐regulation, nucleotide binding and ion access control in potassium‐chloride cotransporters” (The EMBO Journal, 2021):

Biological target: the molecule itself
Test: cryo-EM structure; single-particle cryo-EM of the purified transporter in digitonin, 150 mM NaCl, 20 mM HEPES pH 7.5 (KCC3b-PM also in KCl); homodimer

B1: KCC1Δ19 (human potassium-chloride cotransporter KCC1, isoform A, N-terminally deleted, L20-S1085) (domain or fragment, UniProt Q9UP95 20-1085, looked up)
chain: LEGLSWVDYGERAELDDSDGHGNHRESSPFLSPLEASRGIDYYDRNLALFEEELDIRPKVSSLLGKLVSYTNLTQGAKEHEEAESGEGTRRRAAEAPSMGTLMGVYLPCLQNIFGVILFLRLTWMVGTAGVLQALLIVLICCCCTLLTAISMSAIATNGVVPAGGSYFMISRSLGPEFGGAVGLCFYLGTTFAAAMYILGAIEILLTYIAPPAAIFYPSGAHDTSNATLNNMRVYGTIFLTFMTLVVFVGVKYVNKFASLFLACVIISILSIYAGGIKSIFDPPVFPVCMLGNRTLSRDQFDICAKTAVVDNETVATQLWSFFCHSPNLTTDSCDPYFMLNNVTEIPGIPGAAAGVLQENLWSAYLEKGDIVEKHGLPSADAPSLKESLPLYVVADIATSFTVLVGIFFPSVTGIMAGSNRSGDLRDAQKSIPVGTILAIITTSLVYFSSVVLFGACIEGVVLRDKYGDGVSRNLVVGTLAWPSPWVIVIGSFFSTCGAGLQSLTGAPRLLQAIAKDNIIPFLRVFGHGKVNGEPTWALLLTALIAELGILIASLDMVAPILSMFFLMCYLFVNLACAVQTLLRTPNWRPRFKYYHWALSFLGMSLCLALMFVSSWYYALVAMLIAGMIYKYIEYQGAEKEWGDGIRGLSLSAARYALLRLEEGPPHTKNWRPQLLVLLKLDEDLHVKYPRLLTFASQLKAGKGLTIVGSVIQGSFLESYGEAQAAEQTIKNMMEIEKVKGFCQVVVASKVREGLAHLIQSCGLGGMRHNSVVLGWPYGWRQSEDPRAWKTFIDTVRCTTAAHLALLVPKNIAFYPSNHERYLEGHIDVWWIVHDGGMLMLLPFLLRQHKVWRKCRMRIFTVAQMDDNSIQMKKDLAVFLYHLRLEAEVEVVEMHNSDISAYTYERTLMMEQRSQMLRQMRLTKTEREREAQLVKDRHSALRLESLYSDEEDESAVGADKIQMTWTRDKYMTETWDPSHAPDNFRELVHIKPDQSNVRRMHTAVKLNEVIVTRSHDARLVLLNMPGPPRNSEGDENYMEFLEVLTEGLERVLLVRGGGREVITIYS
modifications: phosphoserine at S88, S734 and S1050 (by proteomics analysis); not phosphorylated at T926/T983
notes: KCC1 (SLC12A4), human, isoform A, residues L20-S1085; Cloned into the pHTBV vector with and without GFP; also called KCC1 (construct Δ19); Δ19-deleted human KCC1; not shown: twin-Strep, C-terminal, cleaved; His10, C-terminal, cleaved
stoichiometry N: 2

B2: KCC3b-PM (human potassium-chloride cotransporter KCC3 isoform B, phospho-mimetic S45D/T940D/T997D, M1-S1099) (natural protein, UniProt Q9UHW9-2 1-1099, looked up)
chain: MPHFTVTKVEDPEEGAAASISQEPSLADIKARIQDSDEPDLSQNDITGEHSQLLDDGHKKARNAYLNNSNYEEGDEYFDKNLALFEEEMDTRPKVSSLLNRMANYTNLTQGAKEHEEAENITEGKKKPTKTPQMGTFMGVYLPCLQNIFGVILFLRLTWVVGTAGVLQAFAIVLICCCCTMLTAISMSAIATNGVVPAGGSYFMISRALGPEFGGAVGLCFYLGTTFAAAMYILGAIEIFLVYIVPRAAIFHSDDALKESAAMLNNMRVYGTAFLVLMVLVVFIGVRYVNKFASLFLACVIVSILAIYAGAIKSSFAPPHFPVCMLGNRTLSSRHIDVCSKTKEINNMTVPSKLWGFFCNSSQFFNATCDEYFVHNNVTSIQGIPGLASGIITENLWSNYLPKGEIIEKPSAKSSDVLGSLNHEYVLVDITTSFTLLVGIFFPSVTGIMAGSNRSGDLKDAQKSIPIGTILAILTTSFVYLSNVVLFGACIEGVVLRDKFGDAVKGNLVVGTLSWPSPWVIVIGSFFSTCGAGLQSLTGAPRLLQAIAKDNIIPFLRVFGHSKANGEPTWALLLTAAIAELGILIASLDLVAPILSMFFLMCYLFVNLACALQTLLRTPNWRPRFRYYHWALSFMGMSICLALMFISSWYYAIVAMVIAGMIYKYIEYQGAEKEWGDGIRGLSLSAARFALLRLEEGPPHTKNWRPQLLVLLKLDEDLHVKHPRLLTFASQLKAGKGLTIVGSVIVGNFLENYGEALAAEQTIKHLMEAEKVKGFCQLVVAAKLREGISHLIQSCGLGGMKHNTVVMGWPNGWRQSEDARAWKTFIGTVRVTTAAHLALLVAKNISFFPSNVEQFSEGNIDVWWIVHDGGMLMLLPFLLKQHKVWRKCSIRIFTVAQLEDNSIQMKKDLATFLYHLRIEAEVEVVEMHDSDISAYTYERDLMMEQRSQMLRHMRLSKTERDREAQLVKDRNSMLRLTSIGSDEDEETETYQEKVHMDWTKDKYMASRGQKAKSMEGFQDLLNMRPDQSNVRRMHTAVKLNEVIVNKSHEAKLVLLNMPGPPRNPEGDENYMEFLEVLTEGLERVLLVRGGGSEVITIYS
modifications: phosphorylated at S685, T727, S930 and Y1070 (by proteomics analysis; the paper says likely only in a subset of the particles for some sites); not phosphorylated at T106/T109
notes: KCC3 (SLC12A6), human, isoform B (KCC3b), residues M1-S1099 (printed length 1099); numbers count on: the B-isoform; Synthesized gene (GenScript, Twist Bioscience) subcloned into pHTBV with C-terminal twin-strep, 10-His and GFP; also called KCC3‐PM; KCC3b (construct PM); not shown: twin-Strep, C-terminal, cleaved; His10, C-terminal, cleaved
stoichiometry N: 2
